Several values for one entry are separate records, joined by “and”; a condition that tells them apart may be missing. Identical values can stand only once. Like-named read-outs stand apart in the source and are kept apart here.

Kd, sedimentation value (percent in the pellet, equimolar mixture) and nebulin bound data for 5 substances are collected here from article PMC3681697.

Assay [1] deals with N-terminal His-tagged recombinant nebulin encompassing modules 160–164 (human) (UniProt P20929). Nature of the assay: ELISA. Background: An ELISA detects its analyte on a solid surface through an enzyme-linked reagent.
The target is the same in assay [2]. Nature of the assay: ELISA. The source holds these as a separate data set.
Assay [3] addresses desmin rod (human) (UniProt P17661). Nature of the assay: co-sedimentation.
In assay [4] the target is full-length wild-type desmin (human) (UniProt P17661). The experiment in a line: co-sedimentation.
Assay [5] has as its target headless desmin (human) (UniProt P17661). Nature of the assay: co-sedimentation.
Assay [6] deals with mutant desmin E245D (human) (UniProt P17661). The experiment in a line: co-sedimentation.
Assay [7] deals with tailless desmin (human) (UniProt P17661). The experiment in a line: co-sedimentation.

What is called Kd is a measure of binding affinity in units of concentration. In the case of “mutant desmin E245D (from UniProt P17661 1-470) (natural protein)”, the Kd was 8 nM in assay [1] and 2 nM in assay [2].

With “full-length wild-type desmin (from UniProt P17661 1-470) (natural protein)”, the Kd in assay [1] was 18 nM and 14 nM.

As for “mutant desmin S46Y (from UniProt P17661 1-470) (natural protein)”, the Kd in assay [1] amounted to 19 nM.

As for “mutant desmin T453I (from UniProt P17661 1-470) (natural protein)”, the dissociation constant (Kd) in assay [1] stood at 11 nM.

With “N-terminal His-tagged recombinant nebulin encompassing modules 160–164 (from UniProt P20929 1-8525) (domain or fragment)”, the sedimentation value (percent in the pellet, equimolar mixture) in assay [3] worked out at 70%; in assay [5] it was 57%; in assay [7] it was 29%. Further, the figures for the nebulin bound at later time points (percent of total protein) in assay [4] and in assay [6] were 35% and 20%, respectively.
